Patent publication US20110046056A1, “APOA-1 PEPTIDE MIMETICS” (priority 2007, published 2011)
*1 amine or outer side, *2 acyl side, *3 side chain or, on linkers, in order; H or OH if unused. Bridges are numbered along the chain shown (N, C = ends). Where no end group is shown, it is not given here. [ ]: non-standard residue; d: D form. S6H = (2S)-2-aminooct-7-enoic acid, C=CCCCC[C@H](N[*:1])C(=O)[*:2]; dNle(6-ylidene) = O=C([C@@H](CCCC=[*:3])N[*:1])[*:2]; Gly(oct-7-en-1-yl) = C=CCCCCCC[C@H](N)C(=O)O; dGly(6-heptenyl) = C=CCCCCC[C@@H](N)C(=O)O; Ala(5-hexenyl) = C=CCCCCC[C@H](N)C(=O)O; Gla = N[C@@H](CC(C(=O)O)C(=O)O)C(=O)O; R5H = not defined here; Aib = CC(C)(N)C(=O)O

B1: GLA8/AIB13 (peptide)
peptide: Ac-PVLDEFR[Gla]KLNE[Aib]LEALKQKLK
modifications: not fully specified (C-terminus)
B2: CONS[S6H^20] (peptide)
peptide: Ac-PVLDEFREKLNEELEALKQ[S6H]LK
modifications: not fully specified (C-terminus); printed as PVLDEFREKLNEELEALKQS6HLK
B3: CONS[S6H^13] (peptide)
peptide: Ac-PVLDEFREKLNE[S6H]LEALKQKLK
modifications: not fully specified (C-terminus)
B4: CONS[S7H^9] (peptide)
peptide: Ac-PVLDEFRE[Ala(5-hexenyl)]LNEELEALKQKLK
B5: R5H [E13-L17]R5H CLOSED RING (peptide)
peptide: Ac-PVLDEFREKLNE[R5H]LEA[R5H]KQKLK
modifications: staple 13-17; reading uncertain
B6: CONS[R7H^2] (peptide)
peptide: Ac-P[dGly(6-heptenyl)]LDEFREKLNEELEALKQKLK
modifications: not fully specified (C-terminus)
B7: R5H [K9-E13]R5H CLOSED RING (peptide)
peptide: Ac-PVLDEFRE[R5H]LNE[R5H]LEALKQKLK
modifications: staple 9-13; reading uncertain
B8: CONS[S6H^2] (peptide)
peptide: Ac-P[S6H]LDEFREKLNEELEALKQKLK
modifications: not fully specified (C-terminus)
B9: CONS[R7H^13] (peptide)
peptide: Ac-PVLDEFREKLNE[dGly(6-heptenyl)]LEALKQKLK
modifications: not fully specified (C-terminus)
B10: CONS[S7H^6] (peptide)
peptide: Ac-PVLDE[Ala(5-hexenyl)]REKLNEELEALKQKLK
B11: CONS[S7H^10] (peptide)
peptide: Ac-PVLDEFREK[Ala(5-hexenyl)]NEELEALKQKLK
B12: CONS[S8H^13] (peptide)
peptide: Ac-PVLDEFREKLNE[Gly(oct-7-en-1-yl)]LEALKQKLK
B13: CONS[R7H^20] (peptide)
peptide: Ac-PVLDEFREKLNEELEALKQ[dGly(6-heptenyl)]LK
modifications: not fully specified (C-terminus); printed as PVLDEFREKLNEELEALKQR7HLK
B14: GLA8/ALA13 (peptide)
peptide: Ac-PVLDEFR[Gla]KLNEALEALKQKLK
modifications: not fully specified (C-terminus)
B15: CONS[R5H^13] (peptide)
peptide: Ac-PVLDEFREKLNE[dNle(6-ylidene)]LEALKQKLK
modifications: not fully specified (C-terminus)
B16: CONS[K^7, S7H^13] (peptide)
peptide: Ac-PVLDEFKEKLNE[Ala(5-hexenyl)]LEALKQKLK
modifications: not fully specified (C-terminus)
B17: CONS[S7H^17] (peptide)
peptide: Ac-PVLDEFREKLNEELEA[Ala(5-hexenyl)]KQKLK

What follows are binders tested against ATP-binding cassette transporter A1 (ABCA1) (mouse, UniProt P41233 1-2261) (assay: cell-based or functional assay).
Chain of ATP-binding cassette transporter A1 (ABCA1) (P41233 whole entry): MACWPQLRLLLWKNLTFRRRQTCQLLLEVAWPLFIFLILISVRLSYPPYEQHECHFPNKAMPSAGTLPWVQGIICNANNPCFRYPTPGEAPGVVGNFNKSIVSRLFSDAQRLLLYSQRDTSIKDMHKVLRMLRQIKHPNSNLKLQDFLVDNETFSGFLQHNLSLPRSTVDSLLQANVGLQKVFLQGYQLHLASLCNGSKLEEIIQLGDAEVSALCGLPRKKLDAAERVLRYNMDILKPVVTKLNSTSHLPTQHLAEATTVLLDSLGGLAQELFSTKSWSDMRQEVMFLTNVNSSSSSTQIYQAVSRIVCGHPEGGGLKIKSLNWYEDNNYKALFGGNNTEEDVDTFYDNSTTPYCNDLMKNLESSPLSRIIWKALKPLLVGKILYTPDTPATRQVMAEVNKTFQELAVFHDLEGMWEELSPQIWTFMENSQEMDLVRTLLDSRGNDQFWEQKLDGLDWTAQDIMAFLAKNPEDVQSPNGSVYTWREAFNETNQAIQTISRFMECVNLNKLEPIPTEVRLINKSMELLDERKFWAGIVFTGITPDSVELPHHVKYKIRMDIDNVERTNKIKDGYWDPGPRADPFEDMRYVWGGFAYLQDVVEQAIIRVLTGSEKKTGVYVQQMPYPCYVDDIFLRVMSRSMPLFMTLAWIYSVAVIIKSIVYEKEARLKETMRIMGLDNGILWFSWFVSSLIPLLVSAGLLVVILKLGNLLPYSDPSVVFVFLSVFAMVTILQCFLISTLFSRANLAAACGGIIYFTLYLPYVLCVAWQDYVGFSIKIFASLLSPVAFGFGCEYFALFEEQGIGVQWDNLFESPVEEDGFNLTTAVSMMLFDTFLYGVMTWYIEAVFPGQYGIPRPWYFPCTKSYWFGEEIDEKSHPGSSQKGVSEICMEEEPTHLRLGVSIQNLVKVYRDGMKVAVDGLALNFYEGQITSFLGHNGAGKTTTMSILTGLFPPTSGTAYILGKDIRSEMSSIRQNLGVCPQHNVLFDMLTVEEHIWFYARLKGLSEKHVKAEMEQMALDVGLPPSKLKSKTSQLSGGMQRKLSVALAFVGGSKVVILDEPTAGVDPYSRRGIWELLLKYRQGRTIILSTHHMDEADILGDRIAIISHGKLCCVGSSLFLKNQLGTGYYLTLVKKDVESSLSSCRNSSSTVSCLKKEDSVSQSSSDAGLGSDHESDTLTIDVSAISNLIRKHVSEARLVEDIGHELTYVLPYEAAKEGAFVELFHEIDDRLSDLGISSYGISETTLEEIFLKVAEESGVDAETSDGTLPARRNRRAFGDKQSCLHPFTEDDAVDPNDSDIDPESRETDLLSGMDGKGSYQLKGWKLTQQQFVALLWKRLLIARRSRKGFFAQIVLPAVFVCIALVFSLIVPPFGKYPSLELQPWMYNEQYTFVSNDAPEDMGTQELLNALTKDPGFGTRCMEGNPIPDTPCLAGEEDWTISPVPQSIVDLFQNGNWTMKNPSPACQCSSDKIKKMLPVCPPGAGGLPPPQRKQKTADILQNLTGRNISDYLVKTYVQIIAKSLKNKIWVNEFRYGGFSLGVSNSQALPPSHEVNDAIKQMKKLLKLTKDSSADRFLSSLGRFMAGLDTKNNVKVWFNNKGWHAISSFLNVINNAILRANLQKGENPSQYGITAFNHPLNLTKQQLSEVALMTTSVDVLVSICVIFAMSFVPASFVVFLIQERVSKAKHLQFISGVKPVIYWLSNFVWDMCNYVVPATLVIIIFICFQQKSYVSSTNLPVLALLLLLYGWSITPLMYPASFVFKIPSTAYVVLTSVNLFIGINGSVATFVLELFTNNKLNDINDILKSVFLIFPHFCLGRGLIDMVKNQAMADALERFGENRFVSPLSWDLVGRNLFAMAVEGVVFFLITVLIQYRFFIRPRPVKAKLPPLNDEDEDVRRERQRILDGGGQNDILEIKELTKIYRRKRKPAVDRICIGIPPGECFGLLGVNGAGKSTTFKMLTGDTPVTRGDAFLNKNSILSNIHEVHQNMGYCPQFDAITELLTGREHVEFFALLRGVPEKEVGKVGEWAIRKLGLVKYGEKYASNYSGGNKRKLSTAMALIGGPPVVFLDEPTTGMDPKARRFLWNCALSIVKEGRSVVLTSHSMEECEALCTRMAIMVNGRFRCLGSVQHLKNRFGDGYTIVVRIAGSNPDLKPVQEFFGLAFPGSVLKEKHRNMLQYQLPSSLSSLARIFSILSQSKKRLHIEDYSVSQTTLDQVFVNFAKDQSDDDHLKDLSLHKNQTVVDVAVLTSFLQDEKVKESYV

**Q.** Which “ABCA1-dependent cholesterol efflux EC50” value does the source give for B1 here?
**A.** The value was 44 µM.

**Q.** For B2, which “ABCA1-dependent cholesterol efflux EC50” value is on record?
**A.** The value was 236 µM.

**Q.** How did the “ABCA1-dependent cholesterol efflux EC50” value turn out when B3 was run?
**A.** The value was 1.4 µM.

**Q.** How did the “ABCA1-dependent cholesterol efflux, % at 100 uM” value turn out when B4 was run?
**A.** The value was 1.4%.

**Q.** B5 was tested. Which “ABCA1-dependent cholesterol efflux, % at 30 uM” value did it give?
**A.** Its value is less than 2%.

**Q.** With B6 as the binder, how does the “ABCA1-dependent cholesterol efflux, % at 100 uM” value read?
**A.** Its value is 6.3%.

**Q.** With B7 as the binder, how does the “ABCA1-dependent cholesterol efflux EC50” value read?
**A.** Its value is 10 µM.

**Q.** With B8 as the binder, how does the “ABCA1-dependent cholesterol efflux, % at 100 uM” value read?
**A.** Its value is 1%.

**Q.** Which “ABCA1-dependent cholesterol efflux EC50” value does the source give for B9 here?
**A.** Its value is 7.2 µM.

**Q.** For B10, which “ABCA1-dependent cholesterol efflux, % at 100 uM” value is on record?
**A.** The value was 4%.

**Q.** For B11, which “ABCA1-dependent cholesterol efflux, % at 100 uM” value is on record?
**A.** Its value is 1.4%.

**Q.** B12 was tested. Which “ABCA1-dependent cholesterol efflux EC50” value did it give?
**A.** Its value is 0.6 µM.

**Q.** For B13, which “ABCA1-dependent cholesterol efflux, % at 100 uM” value is on record?
**A.** Its value is 1.4%.

**Q.** For B14, which “ABCA1-dependent cholesterol efflux EC50” value is on record?
**A.** Its value is 142 µM.

**Q.** B15 was tested. Which “ABCA1-dependent cholesterol efflux, % at 100 uM” value did it give?
**A.** Its value is 6.2%.

**Q.** B16 was tested. Which “ABCA1-dependent cholesterol efflux EC50” value did it give?
**A.** The value was 1.3 µM.

**Q.** For B17, which “ABCA1-dependent cholesterol efflux, % at 100 uM” value is on record?
**A.** Its value is 1%.
